Measurements as given in PMC11836289, “A humanized NOVA1 splicing factor alters mouse vocal communications”.

What was measured:
NOVA1wt = target: T1, NOVA1wt (UniProt Q9JKN6 1-507); assay: EMSA; 10 mM HEPES (pH not stated), 3 mM MgCl2, 150 mM NaCl, 5% glycerol, 0.1 mM DTT, 0.1 U/ul RNase OUT, 10 mg/ml yeast tRNA, 1 mg/ml poly dI-dC, 22 C, 60 min; protein 0.5-2 pmol, RNA 0.08 pmol per reaction; 8% native gel; conditions: protein: recombinant; tags: GST tag (N-term) cleaved by PreScission; pGEX6p1 remnant; label: 32P; hairpin
T1 sequence: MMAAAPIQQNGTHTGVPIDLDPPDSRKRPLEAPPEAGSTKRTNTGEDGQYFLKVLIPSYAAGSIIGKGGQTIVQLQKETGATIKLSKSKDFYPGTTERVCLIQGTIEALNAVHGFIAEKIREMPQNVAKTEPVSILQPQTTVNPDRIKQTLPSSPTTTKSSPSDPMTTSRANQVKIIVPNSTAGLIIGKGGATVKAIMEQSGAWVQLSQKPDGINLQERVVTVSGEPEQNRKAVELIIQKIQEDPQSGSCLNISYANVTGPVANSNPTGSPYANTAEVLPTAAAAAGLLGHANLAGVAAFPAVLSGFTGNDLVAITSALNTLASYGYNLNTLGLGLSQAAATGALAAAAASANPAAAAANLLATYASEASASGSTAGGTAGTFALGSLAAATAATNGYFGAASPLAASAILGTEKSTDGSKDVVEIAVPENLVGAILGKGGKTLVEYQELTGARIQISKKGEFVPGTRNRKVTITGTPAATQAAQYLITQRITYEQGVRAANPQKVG

NOVA1hu (humanized) = target: T2, NOVA1hu (humanized) (UniProt Q9JKN6 1-507, I197V); assay: EMSA; text prints 105.83 ± 8.3; figure and source data 105.3; 10 mM HEPES (pH not stated), 3 mM MgCl2, 150 mM NaCl, 5% glycerol, 0.1 mM DTT, 0.1 U/ul RNase OUT, 10 mg/ml yeast tRNA, 1 mg/ml poly dI-dC, 22 C, 60 min; protein 0.5-2 pmol, RNA 0.08 pmol per reaction; 8% native gel; conditions: protein: recombinant; tags: GST tag (N-term) cleaved by PreScission; pGEX6p1 remnant; label: 32P; hairpin
T2 sequence: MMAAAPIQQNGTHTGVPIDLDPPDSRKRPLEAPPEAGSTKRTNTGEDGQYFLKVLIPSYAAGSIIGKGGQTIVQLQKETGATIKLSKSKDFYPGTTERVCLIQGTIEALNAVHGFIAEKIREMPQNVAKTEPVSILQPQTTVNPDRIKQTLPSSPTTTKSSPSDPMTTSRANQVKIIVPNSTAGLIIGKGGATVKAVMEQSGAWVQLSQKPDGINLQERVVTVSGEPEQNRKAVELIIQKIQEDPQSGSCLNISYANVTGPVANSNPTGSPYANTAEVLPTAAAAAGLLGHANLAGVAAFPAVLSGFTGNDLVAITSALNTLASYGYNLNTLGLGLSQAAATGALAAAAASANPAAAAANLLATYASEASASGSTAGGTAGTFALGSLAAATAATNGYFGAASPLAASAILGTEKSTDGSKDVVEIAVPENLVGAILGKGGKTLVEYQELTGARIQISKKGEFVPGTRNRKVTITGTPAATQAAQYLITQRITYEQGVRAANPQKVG

B1: UCAU RNA probe (stem-loop) (structured_RNA)
RNA: CCUUAUCAUGCUGACUCACGUCAUUUCAUCUCAUCAAGGGAGUCAGUGGGAUA
B1 was tested, and the Kd (NOVA1wt) was 105 ± 11.6 nM and the Kd (NOVA1hu (humanized)) was 105 ± 8.3 nM.
